T1: Flag-Star-PAP (full length) (human, UniProt Q9H6E5 1-874)
T1 construct: Expressed in HEK 293 cells and purified on anti-FLAG M2 resin together with its associated complex; also called Flag tagged Star-PAP; full-length Star-PAP; not shown: FLAG tag
T1 sequence: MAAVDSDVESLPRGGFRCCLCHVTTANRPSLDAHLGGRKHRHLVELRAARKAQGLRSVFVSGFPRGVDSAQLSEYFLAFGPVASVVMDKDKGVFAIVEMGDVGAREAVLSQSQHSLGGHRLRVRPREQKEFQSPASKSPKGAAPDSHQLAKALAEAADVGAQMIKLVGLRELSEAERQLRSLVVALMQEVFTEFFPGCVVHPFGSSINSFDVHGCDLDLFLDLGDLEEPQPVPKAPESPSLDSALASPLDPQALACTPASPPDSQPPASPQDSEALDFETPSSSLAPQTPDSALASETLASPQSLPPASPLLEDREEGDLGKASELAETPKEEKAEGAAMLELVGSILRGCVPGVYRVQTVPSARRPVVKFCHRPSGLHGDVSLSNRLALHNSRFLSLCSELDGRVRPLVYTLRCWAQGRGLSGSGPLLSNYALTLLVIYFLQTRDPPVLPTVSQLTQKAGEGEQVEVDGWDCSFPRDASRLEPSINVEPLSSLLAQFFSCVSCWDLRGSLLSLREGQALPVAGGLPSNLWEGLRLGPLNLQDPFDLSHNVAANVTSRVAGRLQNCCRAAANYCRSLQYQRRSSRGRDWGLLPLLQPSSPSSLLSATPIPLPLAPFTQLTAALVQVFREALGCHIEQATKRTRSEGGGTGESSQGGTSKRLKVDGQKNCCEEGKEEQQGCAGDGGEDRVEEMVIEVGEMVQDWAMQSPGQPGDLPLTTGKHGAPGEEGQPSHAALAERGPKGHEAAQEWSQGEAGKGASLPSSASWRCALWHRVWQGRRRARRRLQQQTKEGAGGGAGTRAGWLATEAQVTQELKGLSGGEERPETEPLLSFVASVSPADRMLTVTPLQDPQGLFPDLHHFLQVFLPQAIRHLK

T2: endogenous Star-PAP (human, UniProt Q9H6E5 1-874)
T2 sequence: T1 sequence

T3: CPSF-100 (Cleavage and Polyadenylation Specificity Factor subunit 100) (human, UniProt Q9P2I0 1-782)
T3 construct: also called SPSF-100
T3 sequence (looked up): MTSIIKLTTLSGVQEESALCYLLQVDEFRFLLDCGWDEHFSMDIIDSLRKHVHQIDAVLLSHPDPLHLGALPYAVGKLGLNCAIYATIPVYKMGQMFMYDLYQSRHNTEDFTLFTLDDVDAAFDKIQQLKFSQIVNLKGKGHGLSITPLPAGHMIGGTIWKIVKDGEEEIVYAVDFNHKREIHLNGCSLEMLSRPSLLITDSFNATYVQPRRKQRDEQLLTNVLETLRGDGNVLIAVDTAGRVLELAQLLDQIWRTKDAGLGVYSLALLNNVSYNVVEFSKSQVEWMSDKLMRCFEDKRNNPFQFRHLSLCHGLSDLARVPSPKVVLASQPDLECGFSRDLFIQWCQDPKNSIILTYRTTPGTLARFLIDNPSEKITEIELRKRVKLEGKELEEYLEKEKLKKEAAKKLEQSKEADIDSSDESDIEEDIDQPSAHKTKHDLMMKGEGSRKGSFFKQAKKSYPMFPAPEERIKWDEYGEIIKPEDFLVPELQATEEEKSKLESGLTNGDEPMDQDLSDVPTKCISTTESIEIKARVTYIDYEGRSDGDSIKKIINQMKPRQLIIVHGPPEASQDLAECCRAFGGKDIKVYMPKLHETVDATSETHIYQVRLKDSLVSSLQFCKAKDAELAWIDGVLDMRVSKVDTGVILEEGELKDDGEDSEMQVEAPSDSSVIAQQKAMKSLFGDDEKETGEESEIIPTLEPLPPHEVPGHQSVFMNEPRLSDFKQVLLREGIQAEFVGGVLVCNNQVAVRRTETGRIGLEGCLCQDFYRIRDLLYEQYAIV

T4: Symplekin (human, UniProt Q92797 1-1274)
T4 sequence (looked up): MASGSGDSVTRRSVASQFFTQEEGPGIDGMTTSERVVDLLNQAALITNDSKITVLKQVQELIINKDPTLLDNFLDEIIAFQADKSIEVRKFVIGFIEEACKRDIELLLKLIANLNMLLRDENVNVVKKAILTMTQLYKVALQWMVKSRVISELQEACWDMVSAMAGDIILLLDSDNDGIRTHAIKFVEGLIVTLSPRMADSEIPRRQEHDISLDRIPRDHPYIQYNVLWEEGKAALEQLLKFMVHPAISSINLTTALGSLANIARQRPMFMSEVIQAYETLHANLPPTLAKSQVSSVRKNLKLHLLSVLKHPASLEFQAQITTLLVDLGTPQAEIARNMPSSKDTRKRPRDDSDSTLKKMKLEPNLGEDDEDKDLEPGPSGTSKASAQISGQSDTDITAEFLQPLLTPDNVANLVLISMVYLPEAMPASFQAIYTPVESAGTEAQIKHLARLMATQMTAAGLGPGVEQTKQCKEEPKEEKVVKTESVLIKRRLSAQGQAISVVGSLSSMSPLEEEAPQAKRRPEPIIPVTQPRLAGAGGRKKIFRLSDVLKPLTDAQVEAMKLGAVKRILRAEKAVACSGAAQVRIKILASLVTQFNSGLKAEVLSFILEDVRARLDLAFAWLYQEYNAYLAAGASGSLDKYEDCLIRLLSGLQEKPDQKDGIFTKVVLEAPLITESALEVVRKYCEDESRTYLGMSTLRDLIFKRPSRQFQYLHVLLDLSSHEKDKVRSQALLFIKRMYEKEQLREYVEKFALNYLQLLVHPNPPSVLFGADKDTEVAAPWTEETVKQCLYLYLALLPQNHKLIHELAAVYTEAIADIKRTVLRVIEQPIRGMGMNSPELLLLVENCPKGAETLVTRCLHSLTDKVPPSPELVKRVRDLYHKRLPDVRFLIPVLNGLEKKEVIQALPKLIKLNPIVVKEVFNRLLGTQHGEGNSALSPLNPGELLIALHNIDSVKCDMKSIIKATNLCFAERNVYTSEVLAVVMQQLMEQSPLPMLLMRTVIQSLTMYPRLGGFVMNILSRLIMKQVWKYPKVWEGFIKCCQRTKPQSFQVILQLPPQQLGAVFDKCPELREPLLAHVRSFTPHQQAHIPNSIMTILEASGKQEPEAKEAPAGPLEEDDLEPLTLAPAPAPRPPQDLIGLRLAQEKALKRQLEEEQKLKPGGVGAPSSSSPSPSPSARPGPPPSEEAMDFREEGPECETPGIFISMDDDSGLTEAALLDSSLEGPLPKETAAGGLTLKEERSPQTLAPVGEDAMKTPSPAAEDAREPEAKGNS

B1: PIPKIα (endogenous) (enzyme, human, UniProt Q99755 1-562, looked up)
chain: MASASSGPSSSVGFSSFDPAVPSCTLSSAASGIKRPMASEVLEARQDSYISLVPYASGMPIKKIGHRSVDSSGETTYKKTTSSALKGAIQLGITHTVGSLSTKPERDVLMQDFYVVESIFFPSEGSNLTPAHHYNDFRFKTYAPVAFRYFRELFGIRPDDYLYSLCSEPLIELCSSGASGSLFYVSSDDEFIIKTVQHKEAEFLQKLLPGYYMNLNQNPRTLLPKFYGLYCVQAGGKNIRIVVMNNLLPRSVKMHIKYDLKGSTYKRRASQKEREKPLPTFKDLDFLQDIPDGLFLDADMYNALCKTLQRDCLVLQSFKIMDYSLLMSIHNIDHAQREPLSSETQYSVDTRRPAPQKALYSTAMESIQGEARRGGTMETDDHMGGIPARNSKGERLLLYIGIIDILQSYRFVKKLEHSWKALVHDGDTVSVHRPGFYAERFQRFMCNTVFKKIPLKPSPSKKFRSGSSFSRRAGSSGNSCITYQPSVSGEHKAQVTTKAEVEPGVHLGRPDVLPQTPPLEEISEGSPIPDPSFSPLVGETLQMLTTSTTLEKLEVAESEFTH
notes: Detected by western blot in immunoprecipitates and FLAG-purified complexes; also called type I phosphatidylinositol phosphate kinase alpha; PIP kinase
B2: Casein Kinase Iα (CKIα), endogenous (enzyme, human, UniProt P48729 2-337, looked up)
chain: ASSSGSKAEFIVGGKYKLVRKIGSGSFGDIYLAINITNGEEVAVKLESQKARHPQLLYESKLYKILQGGVGIPHIRWYGQEKDYNVLVMDLLGPSLEDLFNFCSRRFTMKTVLMLADQMISRIEYVHTKNFIHRDIKPDNFLMGIGRHCNKLFLIDFGLAKKYRDNRTRQHIPYREDKNLTGTARYASINAHLGIEQSRRDDMESLGYVLMYFNRTSLPWQGLKAATKKQKYEKISEKKMSTPVEVLCKGFPAEFAMYLNYCRGLRFEEAPDYMYLRQLFRILFRTLNHQYDYTFDWTMLKQKAAQQAASSSGQGQQAQTPTGKQTDKTKSNMKGF
notes: Detected with a CKIα specific antibody; also called CIKIα
B3: Flag-PAPα (canonical poly(A) polymerase) (enzyme)
chain: MPFPVTTQGSQQTQPPQKHYGITSPISLAAPKETDCVLTQKLIETLKPFGVFEEEEELQRRILILGKLNNLVKEWIREISESKNLPQSVIENVGGKIFTFGSYRLGVHTKGADIDALCVAPRHVDRSDFFTSFYDKLKLQEEVKDLRAVEEAFVPVIKLCFDGIEIDILFARLALQTIPEDLDLRDDSLLKNLDIRCIRSLNGCRVTDEILHLVPNIDNFRLTLRAIKLWAKRHNIYSNILGFLGGVSWAMLVARTCQLYPNAIASTLVHKFFLVFSKWEWPNPVLLKQPEECNLNLPVWDPRVNPSDRYHLMPIITPAYPQQNSTYNVSVSTRMVMVEEFKQGLAITDEILLSKAEWSKLFEAPNFFQKYKHYIVLLASAPTEKQRLEWVGLVESKIRILVGSLEKNEFITLAHVNPQSFPAPKENPDKEEFRTMWVIGLVFKKTENSENLSVDLTYDIQSFTDTVYRQAINSKMFEVDMKIAAMHVKRKQLHQLLPNHVLQKKKKHSTEGVKLTALNDSSLDLSMDSDNSMSVPSPTSATKTSPLNSSGSSQGRNSPAPAVTAASVTNIQATEVSVPQVNSSESSGGTSSESIPQTATQPAISPPPKPTVSRVVSSTRLVNPPPRSSGNAATSGNAATKIPTPIVGVKRTSSPHKEESPKKTKTEEDETSEDANCLALSGHDKTEAKEQLDTETSTTQSETIQTAASLLASQKTSSTDLSDIPALPANPIPVIKNSIKLRLNR
notes: not shown: FLAG tag

Experiments:
[1] = molecular target: T1, Flag-Star-PAP (full length); assay: FLAG affinity purification from HEK 293 cells, western blot
Procedure: (§1) Affinity purification of Flag-Star-PAP and Flag-PAPα and their associated complex of proteins in parallel allowed a comparison of the complexes formed by Star-PAP and PAPα in more detail. Flag tagged Star-PAP and PAPα were purified from HEK 293 cells stably expressing Flag-Star-PAP or Flag-PAPα (following manufacturer's instructions; Sigma-Aldrich) and the presence of endogenous symplekin, CPSF¹⁰⁰, CPSF⁷³, CstF⁶⁴, RNA Pol II, Sm protein (Y12) and PIPKIα was assessed by western blotting. Like Flag-PAPα, Flag-Star-PAP associates with symplekin, CPSF¹⁰⁰ and CPSF⁷³, further confirmation that Star-PAP may function in an mRNA polyadenylation complex (FIG. 7). Also detected with both PAPs was a faster migrating form of RNA Pol II and Sm protein (Y-12), a component of the spliceosome, which is consistent with reports that the machinery for splicing and polyadenylation are coupled.

[2] = molecular target: B3; assay: as above
Procedure: as §1

endogenous Star-PAP = molecular target: T2, endogenous Star-PAP; assay: co-immunoprecipitation with antibodies against full-length Star-PAP, western blot
[3] = molecular target: B3; assay: FLAG affinity purification from HEK 293 cells, immunoblot with a CKIα specific antibody
Procedure: (A) FLAG purified Star-PAP and PAPα complexes were separated by SDS-PAGE, transferred to nitrocellulose and probed with anti-FLAG and -CKIα antibodies. (B) Endogeneous Star-PAP was immunoprecipitated from HEK 293 cells. The resulting precipitates were immunoblotted with Star-PAP and CKIα specific antibodies. A non-specific IgG immunoprecipitation was used as a control. (C) Purified FLAG-Star-PAP complex was incubated with 0, 0.1, 1.0, or 100 μM IC261 (IC₅₀ 11 μM). (D) Purified FLAG-Star-PAP complex was incubated with […] (IC₅₀˜6.0 μM) prior to initiation of the kinase reaction by ATP. Arrow indicates Star-PAP protein.
Casein Kinase Iα (CKIα), is a protein kinase found in nuclear speckles; moreover, CKIα activity is inhibited by PI4,5P₂. […] FLAG proteins were expressed and purified as follows. Human Star-PAP and rat CKIα cDNAs were cloned in to the pFLAG-1 mammalian expression vector (Sigma). For each FLAG purification, four 10 cm dishes each containing ˜5×10^6 HEK 293 cells were transfected with 10 μg DNA and allowed to express for 48 hours. FLAG purifications were performed according to the manufacturer's directions.

[4] = molecular target: T3, CPSF-100 (Cleavage and Polyadenylation …); assay: FLAG affinity purification from HEK 293 cells, western blot
Procedure: as §1

Symplekin = molecular target: T4, Symplekin; assay: as above
Procedure: as §1

Binder: B1
- binding result [1]: binds
- binding result [2]: no binding
- binding result (endogenous Star-PAP): binds

Binder: B2
- binding result [3]: no binding

Binder: B3
- binding result [4]: binds
- binding result (Symplekin): binds

From patent US20090263375A1 (WISCONSIN ALUMNI RESEARCH FOUNDATION, published 2009)
